Assay [1] concerns the target T1, M14.
T1 construct: also called PD1 mutant M14
The assay is described as follows: scFv-phage ELISA. (In general: An ELISA detects its analyte on a solid surface through an enzyme-linked reagent.)

For assay [2], the target named is T2, M3.
T2 construct: also called PD1 mutant M3
Description: scFv-phage ELISA.

Assay [3] deals with T3, antigen PD1 (coated, construct not stated) (UniProt Q15116 25-170, limits assumed).
T3 construct: also called PD1 antigen; PDCD1
Description: scFv-phage ELISA.

For assay [4], the target named is T4, M10.
T4 construct: also called PD1 mutant M10
The assay is described as follows: scFv-phage ELISA.

Assay [5] has as its target T5, M2-1.
T5 construct: also called PD1 mutant M2-1
Description: scFv-phage ELISA.

For assay [6], the target named is T6, M7.
T6 construct: also called PD1 mutant M7
The assay is described as follows: scFv-phage ELISA.

The target of assay [7] is T7, M1.
T7 construct: also called PD1 mutant M1
The assay is described as follows: scFv-phage ELISA.

For assay [8], the target named is T8, M7-2.
T8 construct: also called PD1 mutant M7-2
Description: scFv-phage ELISA.

Assay [9] addresses T9, M13.
T9 construct: also called PD1 mutant M13
The assay is described as follows: scFv-phage ELISA.

Assay [10] has as its target T10, M9.
T10 construct: also called PD1 mutant M9
The assay is described as follows: scFv-phage ELISA.

Assay [11] deals with T11, M6.
T11 construct: also called PD1 mutant M6
The assay is described as follows: scFv-phage ELISA.

For assay [12], the target named is T12, M12.
T12 construct: also called PD1 mutant M12
The assay is described as follows: scFv-phage ELISA.

In assay [13] the target is T13, M5-1.
T13 construct: also called PD1 mutant M5-1
Description: scFv-phage ELISA.

For assay [14], the target named is T14, M11.
T14 construct: also called PD1 mutant M11
The assay is described as follows: scFv-phage ELISA.

The target in assay [15] is T15, M2.
T15 construct: also called PD1 mutant M2
The assay is described as follows: scFv-phage ELISA.

Assay [16] addresses T16, ITGA6-Fc.
T16 construct: Fc fusion
T16 sequence (P23229 whole entry, species assumed, looked up): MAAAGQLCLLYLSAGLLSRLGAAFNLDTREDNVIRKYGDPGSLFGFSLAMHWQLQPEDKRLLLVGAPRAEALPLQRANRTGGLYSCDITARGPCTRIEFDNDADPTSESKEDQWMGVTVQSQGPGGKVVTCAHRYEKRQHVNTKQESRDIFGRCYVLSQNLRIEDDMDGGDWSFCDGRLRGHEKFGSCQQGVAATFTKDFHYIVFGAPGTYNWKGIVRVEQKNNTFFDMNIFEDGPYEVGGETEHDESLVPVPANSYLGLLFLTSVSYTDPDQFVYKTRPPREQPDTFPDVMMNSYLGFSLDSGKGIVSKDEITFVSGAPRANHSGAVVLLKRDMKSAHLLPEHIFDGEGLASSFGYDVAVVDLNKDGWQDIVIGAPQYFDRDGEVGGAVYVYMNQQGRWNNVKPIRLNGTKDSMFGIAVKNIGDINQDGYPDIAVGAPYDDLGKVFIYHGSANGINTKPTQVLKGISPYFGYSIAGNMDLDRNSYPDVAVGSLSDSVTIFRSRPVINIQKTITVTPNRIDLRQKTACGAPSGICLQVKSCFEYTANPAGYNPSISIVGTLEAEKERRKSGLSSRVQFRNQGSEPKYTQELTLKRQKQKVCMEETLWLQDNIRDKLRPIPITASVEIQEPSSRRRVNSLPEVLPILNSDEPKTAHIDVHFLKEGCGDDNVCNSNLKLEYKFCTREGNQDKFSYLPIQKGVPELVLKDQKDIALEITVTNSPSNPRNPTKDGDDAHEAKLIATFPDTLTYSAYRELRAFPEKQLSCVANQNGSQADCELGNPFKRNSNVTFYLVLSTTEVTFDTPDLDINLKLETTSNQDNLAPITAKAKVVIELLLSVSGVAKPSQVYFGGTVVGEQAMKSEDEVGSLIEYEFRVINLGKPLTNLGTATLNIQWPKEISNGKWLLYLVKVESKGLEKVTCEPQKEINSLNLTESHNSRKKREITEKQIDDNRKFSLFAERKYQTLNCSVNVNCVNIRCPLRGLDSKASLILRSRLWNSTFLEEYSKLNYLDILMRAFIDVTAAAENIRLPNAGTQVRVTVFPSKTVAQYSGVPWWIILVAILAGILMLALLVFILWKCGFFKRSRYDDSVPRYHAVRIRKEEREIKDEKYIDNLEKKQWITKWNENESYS
Description: scFv-phage ELISA.

Assay [17] has as its target T17, M5-2.
T17 construct: also called PD1 mutant M5-2
Description: scFv-phage ELISA.

The target in assay [18] is T18, M1-2.
T18 construct: also called PD1 mutant M1-2
Description: scFv-phage ELISA.

For assay [19], the target named is T19, M8.
T19 construct: also called PD1 mutant M8
The assay is described as follows: scFv-phage ELISA.

The target in assay [20] is T20, M7-1.
T20 construct: also called PD1 mutant M7-1
Description: scFv-phage ELISA.

The target of assay [21] is T21, M5.
T21 construct: also called PD1 mutant M5
Description: scFv-phage ELISA.

Assay [22] addresses T22, M4.
T22 construct: also called PD1 mutant M4
The assay is described as follows: scFv-phage ELISA.

The target in assay [23] is T23, M1-1.
T23 construct: also called PD1 mutant M1-1
The assay is described as follows: scFv-phage ELISA.

The target in assay [24] is T24, M2-2.
T24 construct: also called PD1 mutant M2-2
The assay is described as follows: scFv-phage ELISA.

Assay [25] has as its target T25, human PD-1 (NM_005018.2) over-expressed on cells (human, UniProt Q15116 25-288). Description: cell-based or functional assay.
The target in assay [26] is T26, PD1-hFc (human, UniProt Q15116 25-170).
T26 construct: extracellular domain; also called PD1-hFc protein; Human PD-1-Fc (S1420, Y-Biologics)
T26 sequence (Q15116 other isoform, or with tags, fused parts or gaps limits assumed): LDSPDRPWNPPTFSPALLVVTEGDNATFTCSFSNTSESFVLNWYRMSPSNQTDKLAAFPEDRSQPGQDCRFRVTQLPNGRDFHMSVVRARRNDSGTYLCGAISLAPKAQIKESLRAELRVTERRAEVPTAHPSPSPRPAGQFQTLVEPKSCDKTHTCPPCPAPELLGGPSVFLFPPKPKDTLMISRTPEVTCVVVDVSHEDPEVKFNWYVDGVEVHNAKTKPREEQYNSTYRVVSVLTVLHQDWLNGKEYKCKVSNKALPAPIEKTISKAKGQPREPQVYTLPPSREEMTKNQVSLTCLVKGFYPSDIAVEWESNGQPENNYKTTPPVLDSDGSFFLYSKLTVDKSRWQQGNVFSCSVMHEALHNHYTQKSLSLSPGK
Description: SPR ProteOn XPR36, PD1-hFc immobilised, antibody as analyte. The protocol:
A ProteOn XPR36 (BioRad) instrument was used. The GLC sensor chip (BioRad) was mounted on the instrument and washed with PBST buffer, and the carboxymethyldextran surface was activated with an EDC/sulfo-NHS mixed solution. PD1-hFc dissolved at a concentration of 5 ug/ml in a 10 mM sodium acetate buffer solution (pH 5.0) was injected and immobilized on the GLC sensor chip.
In order to deactivate the activated carboxyl groups that remain unreacted with the PD1 protein, 1 M ethanolamine was flowed and 10 mM glycine (pH 2.0) was injected in order to wash proteins that remain unbound to the sensor chip.
The equilibrium dissociation constant (KD) was calculated by plotting and fitting the sensogram data in the equilibrium state depending on concentration.

For assay [27], the target named is T25, human PD-1 (NM_005018.2) over-expressed …. The assay is described as follows: cell-based or functional assay. The source holds these as a separate data set.

Substitutions are numbered along the chain they refer to. Bounds are passed on as bounds.

T25 sequence (Q15116 25-288): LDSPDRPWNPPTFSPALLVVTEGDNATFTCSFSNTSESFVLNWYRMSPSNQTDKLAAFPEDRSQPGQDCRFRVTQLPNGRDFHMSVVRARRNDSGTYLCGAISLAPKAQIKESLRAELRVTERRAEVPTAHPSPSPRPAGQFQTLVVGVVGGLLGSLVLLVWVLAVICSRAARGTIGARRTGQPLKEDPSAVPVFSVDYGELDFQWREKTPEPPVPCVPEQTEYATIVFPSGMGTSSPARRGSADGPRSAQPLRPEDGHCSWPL
T3 sequence (Q15116 25-170 limits assumed): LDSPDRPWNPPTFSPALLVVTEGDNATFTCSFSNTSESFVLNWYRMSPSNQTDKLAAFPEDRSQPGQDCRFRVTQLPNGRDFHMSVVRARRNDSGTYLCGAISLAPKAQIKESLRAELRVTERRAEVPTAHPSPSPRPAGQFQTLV

B1: PD1-49B9 (antibody, V domains shown)
VH: QMQLVESGGGLVQPGRSLRLSCAASGFTFEDYAMHWVRQPPGKGLEWVSSISWNSHNIAYADSVKGRFTISRDNSKNSLYLQMNSLRAEDTAVYYCSTSGLGVHAWGQGTMVTVSS
VL: QSALTQPPSASGSPGQSVTISCTGTSSDVGGYNYVSWYQQHPGKAPKLMIYEVSKRPSGVPDRFSGSKSGNTASLTVSGLQPEDEADYYCSSFARNSNYVFGTGTKVTVL
notes: scFv-phage in the screening ELISA; later whole IgG
Regarding B1, the OD490 in [1] amounted to 3.9; in assay [2], 3.9; in assay [3] it was 3.9; in assay [4], 3.9; in assay [5] it was 3.8; in assay [6] it was 3.9. Besides, the OD490 in assay [7], in assay [8], in assay [9], in assay [10], in assay [11] and in assay [12] was 3.9 in each case. Further, the OD490 in assay [13] was 3.9; in assay [14], 1.4; in [15] it was 3.9; in assay [16], 0.3; in [17] it was 4; in [18] it was 3.9. In addition, the OD490 in assay [19] was determined as 4; in assay [20], 3.9; in [21], 3.9; in [22], 3.8; in [23] it was 3.8; in assay [24], 3.9.

B2: PD1-45D6(A/3H7) (antibody, V domains shown)
VH: QVQLVESGGGVVQPGRSLRLSCAASGFTFSSYAMHWVRQVPGKGLEWVAVISYDGNDKYYADSVKGRFTISRDNSKNTLYLQMNSLRAEDTAVYYCVPTTFEYWGQGSQVTVSS
VL: DIVMTQTPLSLPVTPGEPASISCRSSQSLLDSDDGNTYLDWYLQKPGQSPQLLIYTLSHRASGVPGRFSGSGSGTEFNLRISRVEAEDVGIYYCMQRVEFPFTFGQGTKLEIK
notes: scFv-phage in the screening ELISA; whole IgG in the other assays; also called 45D6-3H7; PD1 45D6 3H7
For orientation: EC50 means the concentration needed to bring the measured effect to its halfway point. A lower EC50 goes with higher potency in that assay. The Kd is a measure of binding affinity in units of concentration. A low value points to tighter binding. What is called koff is the rate constant with which the complex falls apart. A low value points to slow dissociation. A word on the kon: it is the rate constant with which the complex forms. Low values mean slow association, high ones fast association. As for B2, the EC50 in assay [25] turned out to be 1.64 nM. In assay [26], this molecule had a Kd of 0.0253 nM, a koff of 7.78e-06 s⁻¹ and a kon of 308000 M⁻¹ s⁻¹. The “EC50 [nM], PD1/PD-L1 blockade bioassay” value in assay [27] was 1.98 nM.

B3: PD1-48A9 (antibody, V domains shown)
VH: QMQLVQSGAEVKKPGSSVKVSCKASGDTFTRYIINWVRQAPGQGLEWMGRVIPTLGLTTYAQNFQDTVTIIADKSTNTAYMELKNLRSEDTAVYYCARGYGSGAFDIWGQGTMITVSS
VL: B2 VL with D33H, G66D, E76D, N78T, R80K, I91L, V98I, E99D, F102Y, L110V
notes: scFv-phage in the screening ELISA; whole IgG in the other assays
Turning to B3, the OD490 in assay [1] worked out at 4; in assay [2], 2; in assay [3], 2.1; in assay [4], 3.8; in assay [5], 3.8; in assay [6], 0.3. Also, the OD490 in [7] was found to be 3.7; in assay [8] it was 0.4; in assay [9] it was 4; in assay [10], 3.9; in assay [11] it was 3.9; in [12], 3.9. Further, the OD490 in [13] is 0.6; in assay [14], 0.3; in [15], 0.3; in [16] it was 0.3; in assay [17], 3.9; in [18], 3.9. In addition, the OD490 in assay [19] turned out to be 1.7; in assay [20], 0.4; in assay [21], 1.3; in assay [22], 3.9; in assay [23] it was 3.8; in assay [24], 3.9. In addition, in assay [27], the “EC50 [nM], PD1/PD-L1 blockade bioassay” value is 8.64 nM.

B4: PD1-45D6(A/3D2) (antibody, V domains shown)
VH: B2 VH
VL: B2 VL with P18A, D33E, G66D, E76D, N78T, R80K, L110V
notes: scFv-phage in the screening ELISA; whole IgG in the other assays; also called 45D6-3D2; PD1 45D6 3D2
B4 showed an EC50 in assay [25] of 2 nM. In assay [26], this molecule gave a Kd of at most 0.001 nM, a koff of at most 1e-07 s⁻¹ and a kon of 181000 M⁻¹ s⁻¹. Further, in assay [27], the “EC50 [nM], PD1/PD-L1 blockade bioassay” value turned out to be 2.16 nM.
